The values that follow come from patent US20150239968A1.

Test [1] concerns the target recombinant mature human GDF-15 protein derived from expression in E. coli (human) (UniProt Q99988). Briefly: SPR (Biorad ProteOn XPR36, GLC chip), GDF-15 from E. coli immobilized, antibody as analyte.
In test [2] the target is recombinant mature human GDF-15 protein (as expressed in Baculovirus-transfected insect cells) (human) (UniProt Q99988). Briefly: SPR (Biorad ProteOn XPR36, GLC chip), GDF-15 from insect cells immobilized, antibody as analyte, 1:1 Langmuir, 25° C.
Test [3] has the same target. Briefly: SPR (Biorad ProteOn XPR36, GLC chip), KD=koff/kon, GDF-15 from insect cells immobilized.
The target in test [4] is GDF-15 produced by the prostate cancer cell line LnCap (UniProt Q99988). Briefly: cell-based or functional assay.

One may read the koff as a measure of how fast the partners let go of each other. Usually kon stands for a measure of how fast the partners come together. What is called Kd is a measure of binding affinity in units of concentration. For the substance “monoclonal anti-human GDF-15 mAb-B1-23 (antibody)”, in test [1], the deviation of rate constants against GDF-15 derived from insect cells came to 45% and the fold difference of affinity values against GDF-15 derived from insect cells was less than 2 fold. In addition, in test [2], the koff came out at 0.00043 s⁻¹ and the kon worked out at 540000 M⁻¹ s⁻¹. Besides, the Kd in test [3] stood at 790 pM. The proliferation of LnCap cells (Alamar Blue assay) after 72 hrs in test [4] amounted to 30%.
